Drawing on article PMC8704484, this text covers binding result and Kd for five molecules.

Series [1] deals with T1, Rep helicase (E. coli, UniProt P09980 1-673). The experiment in a line: fluorescence anisotropy. On the technique in general: In fluorescence polarisation assays a small probe gives low polarisation when free and higher when bound to something large.
The target of series [2] is T2, RecQ helicase (E. coli, UniProt P15043 1-609). The experiment in a line: fluorescence anisotropy.
The target in series [3] is T3, DHX36 (Bos, UniProt Q05B79 1-1010).
T3 sequence: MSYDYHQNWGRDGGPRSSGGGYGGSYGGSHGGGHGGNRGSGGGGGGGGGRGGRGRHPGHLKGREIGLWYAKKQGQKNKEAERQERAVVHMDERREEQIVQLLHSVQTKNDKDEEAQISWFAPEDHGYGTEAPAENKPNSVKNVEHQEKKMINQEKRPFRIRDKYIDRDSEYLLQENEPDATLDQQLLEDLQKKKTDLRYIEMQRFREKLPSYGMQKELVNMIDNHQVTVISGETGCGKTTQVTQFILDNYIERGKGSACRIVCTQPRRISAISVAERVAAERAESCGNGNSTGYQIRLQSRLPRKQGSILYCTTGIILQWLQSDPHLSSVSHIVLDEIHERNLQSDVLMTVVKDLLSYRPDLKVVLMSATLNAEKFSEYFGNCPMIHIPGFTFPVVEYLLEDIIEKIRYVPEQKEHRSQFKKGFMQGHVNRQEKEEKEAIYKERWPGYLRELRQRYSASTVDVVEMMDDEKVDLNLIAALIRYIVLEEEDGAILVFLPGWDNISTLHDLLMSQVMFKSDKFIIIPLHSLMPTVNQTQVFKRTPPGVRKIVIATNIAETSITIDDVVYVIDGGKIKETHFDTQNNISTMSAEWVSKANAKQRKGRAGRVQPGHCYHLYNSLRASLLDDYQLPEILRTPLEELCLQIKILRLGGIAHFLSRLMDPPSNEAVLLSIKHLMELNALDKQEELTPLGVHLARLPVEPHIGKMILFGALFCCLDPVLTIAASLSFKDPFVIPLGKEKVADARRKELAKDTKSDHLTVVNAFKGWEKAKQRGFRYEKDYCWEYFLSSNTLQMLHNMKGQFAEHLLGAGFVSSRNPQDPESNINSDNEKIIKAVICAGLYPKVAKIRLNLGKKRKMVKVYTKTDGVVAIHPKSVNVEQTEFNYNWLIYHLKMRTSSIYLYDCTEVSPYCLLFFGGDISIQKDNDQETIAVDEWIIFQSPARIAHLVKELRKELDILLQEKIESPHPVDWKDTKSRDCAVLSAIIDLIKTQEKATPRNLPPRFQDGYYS
The experiment in a line: fluorescence anisotropy.

The target of series [4] is T4, BLM-core helicase (human, UniProt P54132 642-1290). The experiment in a line: fluorescence anisotropy.
T4 sequence (P54132 642-1290): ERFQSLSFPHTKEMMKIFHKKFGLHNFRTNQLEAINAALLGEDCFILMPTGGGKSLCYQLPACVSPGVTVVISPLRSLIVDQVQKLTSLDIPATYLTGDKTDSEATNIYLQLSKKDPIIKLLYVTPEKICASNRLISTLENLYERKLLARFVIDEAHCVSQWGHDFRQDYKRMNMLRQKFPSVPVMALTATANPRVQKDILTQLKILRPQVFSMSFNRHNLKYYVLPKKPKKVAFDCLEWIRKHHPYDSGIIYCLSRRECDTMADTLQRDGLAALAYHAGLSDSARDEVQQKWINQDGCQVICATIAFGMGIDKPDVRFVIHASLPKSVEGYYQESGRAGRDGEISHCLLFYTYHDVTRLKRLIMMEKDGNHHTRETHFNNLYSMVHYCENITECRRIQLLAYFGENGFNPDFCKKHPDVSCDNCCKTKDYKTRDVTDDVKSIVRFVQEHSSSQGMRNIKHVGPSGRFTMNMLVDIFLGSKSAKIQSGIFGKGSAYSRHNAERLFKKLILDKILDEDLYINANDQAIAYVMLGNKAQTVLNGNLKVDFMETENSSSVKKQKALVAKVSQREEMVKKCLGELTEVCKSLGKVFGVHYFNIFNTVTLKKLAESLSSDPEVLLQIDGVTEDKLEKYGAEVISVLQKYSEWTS
Series [5] has as its target T1, Rep helicase. The experiment in a line: smFRET.
Series [6] deals with T2, RecQ helicase. The experiment in a line: smFRET.
Series [7] addresses T3, DHX36. Kind of series: smFRET.
The target in series [8] is T4, BLM-core helicase. Kind of series: smFRET.
Series [9] deals with RPA (RPA1-RPA2-RPA3 heterotrimer) (human, UniProt P27694;P15927;P35244 1-616;1-270;1-121). The experiment in a line: smFRET.
RPA (RPA1-RPA2-RPA3 heterotrimer), sequence (P27694 whole entry, chain 1 of 3): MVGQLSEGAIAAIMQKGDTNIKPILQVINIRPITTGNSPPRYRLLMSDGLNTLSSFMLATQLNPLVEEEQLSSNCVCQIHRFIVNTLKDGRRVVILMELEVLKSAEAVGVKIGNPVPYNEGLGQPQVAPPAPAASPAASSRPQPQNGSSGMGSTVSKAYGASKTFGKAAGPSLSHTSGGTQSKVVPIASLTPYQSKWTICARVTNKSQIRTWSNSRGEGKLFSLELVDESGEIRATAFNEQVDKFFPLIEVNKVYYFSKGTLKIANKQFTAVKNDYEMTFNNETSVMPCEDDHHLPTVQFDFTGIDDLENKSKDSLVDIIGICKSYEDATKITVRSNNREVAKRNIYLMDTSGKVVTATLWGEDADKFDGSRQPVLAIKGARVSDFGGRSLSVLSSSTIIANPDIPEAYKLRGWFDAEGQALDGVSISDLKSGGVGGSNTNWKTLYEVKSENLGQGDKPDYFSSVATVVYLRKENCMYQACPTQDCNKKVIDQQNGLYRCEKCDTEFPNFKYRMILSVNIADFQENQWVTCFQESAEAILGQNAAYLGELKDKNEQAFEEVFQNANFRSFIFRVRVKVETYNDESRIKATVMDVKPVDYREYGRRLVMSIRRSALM
RPA (RPA1-RPA2-RPA3 heterotrimer), sequence (P15927 whole entry, chain 2 of 3): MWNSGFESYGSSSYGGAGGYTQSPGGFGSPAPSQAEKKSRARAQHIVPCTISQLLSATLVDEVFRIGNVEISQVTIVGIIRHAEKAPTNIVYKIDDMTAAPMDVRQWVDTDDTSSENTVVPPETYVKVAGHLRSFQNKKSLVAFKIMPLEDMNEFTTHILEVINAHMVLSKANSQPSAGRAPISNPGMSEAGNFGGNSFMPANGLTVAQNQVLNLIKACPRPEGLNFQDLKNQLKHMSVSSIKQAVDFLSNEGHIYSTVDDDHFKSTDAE
RPA (RPA1-RPA2-RPA3 heterotrimer), sequence (P35244 whole entry, chain 3 of 3): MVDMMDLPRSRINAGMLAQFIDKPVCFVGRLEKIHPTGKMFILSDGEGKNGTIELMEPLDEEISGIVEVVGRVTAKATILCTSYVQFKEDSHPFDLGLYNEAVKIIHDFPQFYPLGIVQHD

T2 sequence (P15043 whole entry): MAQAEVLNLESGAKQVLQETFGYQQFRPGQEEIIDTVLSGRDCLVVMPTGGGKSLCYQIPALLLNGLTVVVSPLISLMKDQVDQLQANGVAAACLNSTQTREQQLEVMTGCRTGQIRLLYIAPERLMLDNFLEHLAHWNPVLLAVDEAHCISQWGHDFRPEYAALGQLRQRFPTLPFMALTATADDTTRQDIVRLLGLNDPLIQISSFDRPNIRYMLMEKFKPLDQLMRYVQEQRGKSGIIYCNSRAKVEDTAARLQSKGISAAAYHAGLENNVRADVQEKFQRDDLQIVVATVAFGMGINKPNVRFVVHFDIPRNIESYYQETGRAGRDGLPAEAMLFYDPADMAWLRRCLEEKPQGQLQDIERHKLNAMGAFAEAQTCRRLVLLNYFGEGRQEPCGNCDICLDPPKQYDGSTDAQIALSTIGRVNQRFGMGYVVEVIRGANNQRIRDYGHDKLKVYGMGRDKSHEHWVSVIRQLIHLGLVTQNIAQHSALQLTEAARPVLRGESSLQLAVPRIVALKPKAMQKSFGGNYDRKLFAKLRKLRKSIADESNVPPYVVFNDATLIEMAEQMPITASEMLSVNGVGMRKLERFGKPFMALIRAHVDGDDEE
T1 sequence (P09980 whole entry): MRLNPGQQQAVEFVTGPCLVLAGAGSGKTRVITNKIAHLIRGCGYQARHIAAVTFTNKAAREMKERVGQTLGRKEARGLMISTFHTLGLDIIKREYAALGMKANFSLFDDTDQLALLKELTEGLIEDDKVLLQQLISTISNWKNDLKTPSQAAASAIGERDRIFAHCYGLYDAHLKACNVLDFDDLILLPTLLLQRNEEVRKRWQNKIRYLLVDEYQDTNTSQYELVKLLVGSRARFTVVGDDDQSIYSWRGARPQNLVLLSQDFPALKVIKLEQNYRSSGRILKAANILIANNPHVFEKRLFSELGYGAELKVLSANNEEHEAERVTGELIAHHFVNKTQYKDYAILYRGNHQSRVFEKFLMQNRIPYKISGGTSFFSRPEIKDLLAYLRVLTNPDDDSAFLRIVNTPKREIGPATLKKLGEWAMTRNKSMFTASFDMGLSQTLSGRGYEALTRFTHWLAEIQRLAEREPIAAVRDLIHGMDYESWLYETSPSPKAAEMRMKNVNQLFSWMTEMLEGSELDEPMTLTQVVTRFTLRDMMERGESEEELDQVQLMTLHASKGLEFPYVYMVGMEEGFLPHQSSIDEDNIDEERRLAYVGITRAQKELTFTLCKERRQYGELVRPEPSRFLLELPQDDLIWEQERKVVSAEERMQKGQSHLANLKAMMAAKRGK

B1: F-Bcl2-IM (structured_DNA)
DNA: CCCGCCCCCTTCCTCCCGCGCCC
As to B1, the binding result with Rep helicase [1], in the series with RecQ helicase [2] and with DHX36 [3] was “binds” throughout. This molecule also yielded a Kd in the series with BLM-core helicase [4] of 22 nM.

B2: d27Bcl2-IM / Stem (no loading tail) (mixed)
DNA 1: GCGTGGCACCGGTAATAGGAAATAGGATTCCCGCCCCCTTCCTCCCGCGCCCT
DNA 2: TCCTATTTCCTATTACCGGTGCCACGC
As for B2, the binding result with Rep helicase [5], with RecQ helicase [6], with DHX36 [7] and in the series with BLM-core helicase [8] was “binds” in each case.

B3: Duplex (24nt-F/24nt) (dsDNA)
DNA 1: GCCCTGGTGCCGACCAACGAAGGT
DNA 2: ACCTTCGTTGGTCGGCACCAGGGC
As to B3, the binding result in the series with BLM-core helicase [4] was “no binding”.

B4: d27Bcl2-Mut / Stem (mixed)
DNA 1: GCGTGGCACCGGTAATAGGAAATAGGATTCTCTCTCTCTTCCTCTCTCGCTC
DNA 2: TCCTATTTCCTATTACCGGTGCCACGC
With B4, the binding result in [9] was “binds”.

B5: F-Bcl2-G4 (structured_DNA)
DNA: GGGCGCGGGAGGAAGGGGGCGGG
In the series with BLM-core helicase [4], B5 had a dissociation constant (Kd) of 97.7 nM. This lies in the double-digit nanomolar range.

Broadly, the Kd is the concentration at which binding is half-saturated.
